Key:
[1] = substrate: Nc1ncnc2c1ncn2[C@@H]1O[C@H](COP(=O)(O)OP(=O)(O)OP(=O)(O)O)[C@@H](O)[C@H]1O; test: purified protein, by the assay type; settings: pH 7.8
[2] = substrate: NC(=O)c1ccc[n+]([C@@H]2O[C@H](COP(=O)(O)OP(=O)(O)OC[C@H]3O[C@@H](n4cnc5c(N)ncnc54)[C@H](O)[C@@H]3O)[C@@H](O)[C@H]2O)c1; test: purified protein, by the assay type; settings: pH 7.8

B1: 6HIS-Δ38NADKc-1 (with AtCaM1/Ca^2+) (Arabidopsis thaliana) (protein)
chain: AGELLLRRRKLDQGASMGYKDVKIAPLIERKDSGRRSNLERFSHYVARQLGFEDPNEYPQLCKLANGYLLKTKGYDENVDEYLENEAERDSLYVHLLEEFDRCILTYFSFNWTQSSNLISQALSDESDQKVPKLKDFVMAATRKQRFERVTKDLKVKRVISTLVEEMRVIGSGSSEPHCTEVMSPVAHNKRSPVLLLMGGGMGAGKSTVLKDIFLESFWSEAQADAVVIEADAFKETDVIYRALSSRGHHDDMLQTAELVHQSSTDAASSLLVTALNDGRDVIMDGTLSWEPFVEQMIEMARNVHKQKYRMGEGYKVSEEGTITEKYWEEEEEETKENGKQQNLKPYRIELVGVVCDAYLAVARGIRRALMVKRAVRVKPQLNSHKRFANAFPKYCELVDNARLYCTNAVGGPPRLIAWKDGNSKLLVDPEDIDCLKRVSSLNPDAESIYELYPDPSQLSKPGSVWNDVVLVPSRPKVQKELSDAIRRIEKAQPKN
**Q.** Which Km [1] does the source give for B1 here?
**A.** The Km was 203(±30) uM.

**Q.** What about the kcat [1] of the same protein?
**A.** The kcat was 41 ± 2 s⁻¹.

**Q.** What about the kcat/Km [1] of the same protein?
**A.** Its kcat/Km is 200000 M⁻¹ s⁻¹.

**Q.** And the Km [2]?
**A.** Its Km is 147 (±17) uM.

**Q.** What about the kcat [2] of the same protein?
**A.** The kcat was 42 ± 2 s⁻¹.

**Q.** What about the kcat/Km [2] of the same protein?
**A.** Its kcat/Km is 280000 M⁻¹ s⁻¹.

Reference: paper doi:10.1101/521658v1
